This test concerns the target bovine trypsin (bovine) (UniProt P00760). The test can be described thus: cell-based or functional assay.
Sequence of UniProt P00760 (P00760 24-246): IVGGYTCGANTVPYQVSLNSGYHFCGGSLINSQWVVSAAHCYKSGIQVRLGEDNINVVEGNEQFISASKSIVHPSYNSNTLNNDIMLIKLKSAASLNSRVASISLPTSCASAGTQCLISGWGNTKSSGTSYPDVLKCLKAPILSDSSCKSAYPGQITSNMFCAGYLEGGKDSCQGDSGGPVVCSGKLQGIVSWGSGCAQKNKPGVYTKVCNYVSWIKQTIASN

For the substance “native chicken ovomucoid (nOVD), from chicken egg white (from UniProt P01005 25-210)”, the Trypsin inhibition activity turned out to be 13700 TIU/g.

(Values after patent publication US20250212928A1.)
